# Like-named read-outs stand apart in the source and are kept apart here.
# Columns and labels:
# [1] = Pharmacokinetics of Semaglutide in albumin crystal sugar truffle shell vs SC, plasma Semaglutide by ELISA; format: in vivo, Wistar Rats; details: 0.1 mg
# Procedure: The semaglutide was processed to prepare albumin microparticles containing semaglutide according to the procedure mentioned under Example 5. The microparticle of albumin crystals containing semaglutide was then lyophilized after washing with cold isopropanol.
# Pharmacokinetic analysis was conducted in male Wistar Rats weighing 150 to 250 grams for 1 day. Rats in the oral treatment group was fasted overnight. […] The time of dosage of each animal was noted. […] An antibody, anti-Semaglutide was pre-coated onto a 96-well plate. […] The intensity of the yellow color is proportional to the Semaglutide amount bound on the plate.
# [2] = minipig, in vivo, iv
# Procedure: Pharmacokinetic analysis was conducted in Female Minipigs weighing 12±1 kg for 2 days. Pigs in the treatment group was fasted overnight prior to the test sample administration. All the test animals in the treatment groups were administered with respective test formulation to the pre-designated animals. The time of dosage of each animal was noted. Blood samples were collected at aforementioned time points 0 min, 5 min, 30 min, 1 hr, 4 hrs, 12 hrs, 24 hrs, and 48 hrs into an EDTA-blood collection tubes for the separation of plasma to determine insulin levels by ELISA. Plasma samples collected at different time points were analyzed by ELISA kit according to ABBEXA protocol. This kit is based on sandwich enzyme-linked immuno-sorbent assay technology. An antibody, anti-insulin was pre-coated onto a 96-well plate. Standards, test samples, and biotin-conjugated reagent were added to the wells and incubated. The HRP-conjugated reagent was then added, and the whole plate was incubated. Unbound conjugates were removed using wash buffer at each stage. TMB substrate was used to quantify the HRP enzymatic reaction. After TMB substrate was added, only wells that contain sufficient INS will produce a blue colored product, which then changes to yellow after adding the acidic stop solution. The intensity of the yellow colour is proportional to the INS amount bound on the plate. The Optical Density (OD) was measured spectrophotometrically at 450 nm in a microplate reader, from which the concentration of INS can be calculated.
# (§1) Insulin was analyzed in plasma using a specific enzyme linked immunosorbent assay (ELISA). Pharmacokinetic endpoints were determined using noncompartmental methods using PK Solutions software. AUC was approximated using the trapezoidal rule on the observed concentrations. C max for each Insulin dose was derived as the maximum of all valid concentrations, and t max was then determined as the corresponding time point to C max. The terminal elimination rate constant (λ z) was estimated by log-linear regression on the terminal part of the concentration-time curve, and t ½ was then calculated as t ½=ln 2/λz.
# [3] = minipig, in vivo, iv; remark: listed apart in the source
# Procedure: Pharmacokinetic analysis was conducted in Female Minipigs weighing 12±1 kg for 2 days. Pigs in the treatment group was fasted overnight prior to the test sample administration. All the test animals in the treatment groups were administered with respective test formulation to the pre-designated animals. The time of dosage of each animal was noted. Blood samples were collected at aforementioned time points 0 min, 5 min, 30 min 1 hr, 4 hrs, 12 hrs, 24 hrs, and 48 hrs into an EDTA-blood collection tubes for the separation of plasma to determine insulin levels by ELISA. Plasma samples collected at different time points were analyzed by ELISA kit according to ABBEXA protocol. This kit is based on sandwich enzyme-linked immuno-sorbent assay technology. An antibody, anti-insulin was pre-coated onto a 96-well plate. Standards, test samples, and biotin-conjugated reagent were added to the wells and incubated. The HRP-conjugated reagent was then added, and the whole plate was incubated. Unbound conjugates were removed using wash buffer at each stage. TMB substrate was used to quantify the HRP enzymatic reaction. After TMB substrate was added, only wells that contain sufficient INS will produce a blue colored product, which then changes to yellow after adding the acidic stop solution. The intensity of the yellow colour is proportional to the INS amount bound on the plate. The Optical Density (OD) was measured spectrophotometrically at 450 nm in a microplate reader, from which the concentration of INS can be calculated.
# as §1
compound,measurement,setting,value
CC[C@H](C)[C@H](NC(=O)[C@H](Cc1ccccc1)NC(=O)[C@H](CCC(=O)O)NC(=O)[C@H](CCCCNC(=O)COCCOCCNC(=O)COCCOCCNC(=O)CC[C@H](NC(=O)CCCCCCCCCCCCCCCCC(=O)O)C(=O)O)NC(=O)[C@H](C)NC(=O)[C@H](C)NC(=O)[C@H](CCC(N)=O)NC(=O)CNC(=O)[C@H](CCC(=O)O)NC(=O)[C@H](CC(C)C)NC(=O)[C@H](Cc1ccc(O)cc1)NC(=O)[C@H](CO)NC(=O)[C@H](CO)NC(=O)[C@@H](NC(=O)[C@H](CC(=O)O)NC(=O)[C@H](CO)NC(=O)[C@@H](NC(=O)[C@H](Cc1ccccc1)NC(=O)[C@@H](NC(=O)CNC(=O)[C@H](CCC(=O)O)NC(=O)C(C)(C)NC(=O)[C@@H](N)Cc1cnc[nH]1)[C@@H](C)O)[C@@H](C)O)C(C)C)C(=O)N[C@@H](C)C(=O)N[C@@H](Cc1c[nH]c2ccccc12)C(=O)N[C@@H](CC(C)C)C(=O)N[C@H](C(=O)N[C@@H](CCCNC(=N)N)C(=O)NCC(=O)N[C@@H](CCCNC(=N)N)C(=O)NCC(=O)O)C(C)C [Semaglutide],Mean Semaglutide levels,"[1]; 0 h, SC",0.00 ± 0.00 ng/mL
same,AUMC 0-inf_obs,[1]; SC,29775275.74 ng/ml * h^2
same,AUMC 0-inf_pred,[1]; SC,29434343.61 ng/ml * h^2
same,AUMC 0-t,[1]; SC,2165980.669 ng/ml * h^2
same,AUMC 0-t/0-inf_obs,[1]; SC,0.07274
same,AUMC 0-t/0-inf_pred,[1]; SC,0.07359
same,AUMC t-inf_obs,[1]; SC,27609295.07 ng/ml * h^2
same,AUMC t-inf_pred,[1]; SC,27268362.94 ng/ml * h^2
same,Clast_obs,[1]; SC,6808.65 ng/mL
same,Clast_pred,[1]; SC,6725 ng/mL
same,Lambda_z,[1]; SC,0.01894 h⁻¹
same,Tlag,[1]; SC,0 h
same,Tlast,[1]; SC,24 h
same,level at 0.25 h,"[1]; male, Wistar, rat, plasma, 0.25 h, SC, read-out: Mean Semaglutide levels",11900 ± 2420 ng/mL
same,level at 0.5 h,"[1]; male, Wistar, rat, plasma, 0.5 h, SC, read-out: Mean Semaglutide levels",11200 ± 1470 ng/mL
same,level at 1 h,"[1]; male, Wistar, rat, plasma, 1 h, SC, read-out: Mean Semaglutide levels",13100 ± 1670 ng/mL
same,level at 2 h,"[1]; male, Wistar, rat, plasma, 2 h, SC, read-out: Mean Semaglutide levels",12600 ± 2930 ng/mL
same,level at 4 h,"[1]; male, Wistar, rat, plasma, 4 h, SC, read-out: Mean Semaglutide levels",10300 ± 2790 ng/mL
same,level at 8 h,"[1]; male, Wistar, rat, plasma, 8 h, SC, read-out: Mean Semaglutide levels",8560 ± 1420 ng/mL
same,level at 24 h,"[1]; male, Wistar, rat, plasma, 24 h, SC, read-out: Mean Semaglutide levels",6810 ± 1730 ng/mL
same,MRT inf,"[1]; rat, in vivo, sc, SC, read-out: MRT 0-inf_obs",52.6 h
same,MRT inf,"[1]; rat, in vivo, sc, SC, read-out: MRT 0-inf_pred",52.4 h
same,MRT last,"[1]; rat, in vivo, sc, read-out: MRT 0-t",10.5 h
"Human Insulin R: Humulin R (insulin human recombinant) U-100, marketed liquid formulation, given IV",Cl_obs,[2],0.000 (mg)/(mU/L)/h
same,Cl_pred,[2],0.000 (mg)/(mU/L)/h
same,AUC 0-inf_obs,[2]; 0.347 mg,803.478 mU/L * h
same,AUC 0-inf_pred,[2]; 0.347 mg,800.145 mU/L * h
same,AUC t-inf_obs,[2]; 0.347 mg,20.830 mU/L * h
same,AUC t-inf_pred,[2]; 0.347 mg,17.497 mU/L * h
same,AUC(0-t),[2]; 0.347 mg,782.648 mU/L * h
same,C0,[2]; 0.347 mg,105.903 mU/L
same,Cmax,[2]; 0.347 mg,998.596 mU/L
same,MRT 0-inf_obs,[2]; 0.347 mg,1.532 h
same,MRT 0-inf_pred,[2]; 0.347 mg,1.471 h
same,MRT 0-t,[2]; 0.347 mg,1.143 h
same,Tmax,[2]; 0.347 mg,4.8 min
same,Vss_obs,[2]; 0.347 mg,0.001 (mg)/(mU/L)
same,Vss_pred,[2]; 0.347 mg,0.001 (mg)/(mU/L)
same,Vz_obs,[2]; 0.347 mg,0.002 (mg)/(mU/L)
same,Vz_pred,[2]; 0.347 mg,0.002 (mg)/(mU/L)
same,t½,[2]; 0.347 mg,2.873 h
same,Cl_obs,[3],0.000 (mg)/(mU/L)/h
same,Cl_pred,[3],0.000 (mg)/(mU/L)/h
same,AUC 0-inf_obs,[3]; 0.347 mg,803.478 mU/L * h
same,AUC 0-inf_pred,[3]; 0.347 mg,800.145 mU/L * h
same,AUC t-inf_obs,[3]; 0.347 mg,20.830 mU/L * h
same,AUC t-inf_pred,[3]; 0.347 mg,17.497 mU/L * h
same,AUC(0-t),[3]; 0.347 mg,782.648 mU/L * h
same,C0,[3]; 0.347 mg,105.903 mU/L
same,Cmax,[3]; 0.347 mg,998.596 mU/L
same,MRT 0-inf_obs,[3]; 0.347 mg,1.532 h
same,MRT 0-inf_pred,[3]; 0.347 mg,1.471 h
same,MRT 0-t,[3]; 0.347 mg,1.143 h
same,Tmax,[3]; 0.347 mg,4.8 min
same,Vss_obs,[3]; 0.347 mg,0.001 (mg)/(mU/L)
same,Vss_pred,[3]; 0.347 mg,0.001 (mg)/(mU/L)
same,Vz_obs,[3]; 0.347 mg,0.002 (mg)/(mU/L)
same,Vz_pred,[3]; 0.347 mg,0.002 (mg)/(mU/L)
same,t½,[3]; 0.347 mg,2.873 h

# Reference: patent US12533321B2, “Polypeptide formulations for oral delivery” (Bhami's Research Laboratory, Pvt. Ltd., priority 2022, dated 2026)
